Laboratory results from FireProtDB (doi:10.1021/bi00118a013).

B1: Guanyl-specific ribonuclease T1, P00651 (parent)
chain: MMYSKLLTLTTLLLPTALALPSLVERACDYTCGSNCYSSSDVSTAQAAGYQLHEDGETVGSNSYPHKYNNYEGFDFSVSSPYYEWPILSSGDVYSGGSPGADRVVFNENNQLAGVITHTGASGNNFVECT

Variants of: B1
Details: Aspergillus oryzae (strain ATCC 42149 / RIB 40), pH 7, Fluorescence, MOPS 30 mM, reversible: yes, structure 1RN1, whole UniProt chain shown

N62A
ddG of mutation (higher = less stable) (25 °C, Urea): -0.03 kcal/mol
denaturant m value (25 °C, Urea): 1.31 kcal/mol/M
denaturant midpoint (higher = more stable) (25 °C, Urea): 5.31 M
ddG of mutation (higher = less stable) (50.9 °C, Thermal): 0 kcal/mol
Tm (Thermal): 50.9 °C
change of melting temperature, mutant - wild type (higher = more stable) (Thermal): 0 °C
unfolding enthalpy (van 't Hoff) (Thermal): 111 kcal/mol

S38A
ddG of mutation (higher = less stable) (25 °C, Urea): 1.23 kcal/mol
denaturant m value (25 °C, Urea): 1.28 kcal/mol/M
denaturant midpoint (higher = more stable) (25 °C, Urea): 4.29 M
ddG of mutation (higher = less stable) (50.9 °C, Thermal): 1.08 kcal/mol
Tm (Thermal): 47.7 °C
change of melting temperature, mutant - wild type (higher = more stable) (Thermal): -3.2 °C
unfolding enthalpy (van 't Hoff) (Thermal): 99 kcal/mol

S43A
ddG of mutation (higher = less stable) (50.9 °C, Thermal): -0.57 kcal/mol
Tm (Thermal): 52.6 °C
change of melting temperature, mutant - wild type (higher = more stable) (Thermal): 1.7 °C
unfolding enthalpy (van 't Hoff) (Thermal): 109 kcal/mol

Y83F
ddG of mutation (higher = less stable) (25 °C, Urea): 0.5 kcal/mol
denaturant m value (25 °C, Urea): 1.29 kcal/mol/M
denaturant midpoint (higher = more stable) (25 °C, Urea): 4.88 M
ddG of mutation (higher = less stable) (50.9 °C, Thermal): 0.44 kcal/mol

Y82F
ddG of mutation (higher = less stable) (25 °C, Urea): 0.78 kcal/mol
denaturant m value (25 °C, Urea): 1.26 kcal/mol/M
denaturant midpoint (higher = more stable) (25 °C, Urea): 4.65 M
ddG of mutation (higher = less stable) (50.9 °C, Thermal): 0.71 kcal/mol
Tm (Thermal): 48.8 °C
change of melting temperature, mutant - wild type (higher = more stable) (Thermal): -2.1 °C
unfolding enthalpy (van 't Hoff) (Thermal): 99 kcal/mol

N70A
ddG of mutation (higher = less stable) (25 °C, Urea): 2.08 kcal/mol
denaturant m value (25 °C, Urea): 1.3 kcal/mol/M
denaturant midpoint (higher = more stable) (25 °C, Urea): 3.59 M

Y94F
ddG of mutation (higher = less stable) (25 °C, Urea): 1.36 kcal/mol
denaturant m value (25 °C, Urea): 1.32 kcal/mol/M
denaturant midpoint (higher = more stable) (25 °C, Urea): 4.17 M
ddG of mutation (higher = less stable) (50.9 °C, Thermal): 1.35 kcal/mol
Tm (Thermal): 46.9 °C
change of melting temperature, mutant - wild type (higher = more stable) (Thermal): -4 °C
unfolding enthalpy (van 't Hoff) (Thermal): 89 kcal/mol

N107A
ddG of mutation (higher = less stable) (25 °C, Urea): 2.87 kcal/mol
denaturant m value (25 °C, Urea): 1.44 kcal/mol/M
denaturant midpoint (higher = more stable) (25 °C, Urea): 2.92 M
ddG of mutation (higher = less stable) (50.9 °C, Thermal): 2.91 kcal/mol
Tm (Thermal): 42.3 °C
change of melting temperature, mutant - wild type (higher = more stable) (Thermal): -8.6 °C
unfolding enthalpy (van 't Hoff) (Thermal): 91 kcal/mol

Y37F
ddG of mutation (higher = less stable) (25 °C, Urea): 2.11 kcal/mol
denaturant m value (25 °C, Urea): 1.27 kcal/mol/M
denaturant midpoint (higher = more stable) (25 °C, Urea): 3.56 M
ddG of mutation (higher = less stable) (50.9 °C, Thermal): 2.03 kcal/mol
Tm (Thermal): 44.9 °C
change of melting temperature, mutant - wild type (higher = more stable) (Thermal): -6 °C
unfolding enthalpy (van 't Hoff) (Thermal): 101 kcal/mol

Y68F
ddG of mutation (higher = less stable) (25 °C, Urea): -1.14 kcal/mol
denaturant m value (25 °C, Urea): 1.17 kcal/mol/M
denaturant midpoint (higher = more stable) (25 °C, Urea): 6.24 M
ddG of mutation (higher = less stable) (50.9 °C, Thermal): -1.15 kcal/mol
Tm (Thermal): 54.3 °C
change of melting temperature, mutant - wild type (higher = more stable) (Thermal): 3.4 °C
unfolding enthalpy (van 't Hoff) (Thermal): 106 kcal/mol

S90A
ddG of mutation (higher = less stable) (25 °C, Urea): 1.44 kcal/mol
denaturant m value (25 °C, Urea): 1.38 kcal/mol/M
denaturant midpoint (higher = more stable) (25 °C, Urea): 4.11 M
ddG of mutation (higher = less stable) (50.9 °C, Thermal): 1.56 kcal/mol

N35A
ddG of mutation (higher = less stable) (25 °C, Urea): 0.9 kcal/mol
denaturant m value (25 °C, Urea): 1.28 kcal/mol/M
denaturant midpoint (higher = more stable) (25 °C, Urea): 4.56 M
ddG of mutation (higher = less stable) (50.9 °C, Thermal): 0.71 kcal/mol
Tm (Thermal): 48.8 °C
change of melting temperature, mutant - wild type (higher = more stable) (Thermal): -2.1 °C
unfolding enthalpy (van 't Hoff) (Thermal): 101 kcal/mol
